Assays:
[1] = molecular target: β-galactosidase from Escherichia coli (Escherichia coli) [β-galactosidase: P00722]; experiment: direct ELISA: phage immobilized in wells, unlabeled β-galactosidase in solution at varied concentration [bottom panel]
[2] = molecular target: T1, β-galactosidase from Escherichia coli (Escherichia coli, UniProt P00722 2-1024 = β-galactosidase); experiment: as above
T1 construct: Unlabeled in the ELISA; in solution in all assays; also called b-galactosidase
From the text: (§1) Each binding curve is labeled with the altered amino acid sequence of the foreign peptide carried by the phage being tested (V_o=vector control). ELISA signal (mOD/min) is shown as a function of ligand concentration (micrograms/ml for top two panels; nanomolar for bottom panel).
(§2) *Escherichia coli*). Each protein was absorbed to the surface of a 35-mm polystyrene Petri dish and exposed to the phage library. Unbound phage were washed away, and bound phage was eluted with acid buffer and amplified by infecting fresh bacterial host cells. […] The selected phage were further characterized by enzyme linked immuno sorbent assay (ELISA) in which the phage were immobilized on the plastic surface of ELISA wells and reacted with the ligands in solution phase. Neutravidin and streptavidin were labeled with alkaline phosphatase, while β-galactosidase was unlabeled. […] Inhibition ELISAs verified that non-immobilized peptide-bearing phage compete with immobilized phage for binding to their respective ligands.

neutravidin = molecular target: T2, neutravidin (chicken (stated for avidin), UniProt P02701 25-152); experiment: direct ELISA: phage immobilized in wells, alkaline phosphatase-labeled neutravidin in solution at varied concentration [top panel]
T2 construct: Labeled with alkaline phosphatase in the ELISA; also called alkaline phosphatase-labeled neutravidin; avidin (from chicken egg white)
T2 sequence (P02701 25-152 limits assumed): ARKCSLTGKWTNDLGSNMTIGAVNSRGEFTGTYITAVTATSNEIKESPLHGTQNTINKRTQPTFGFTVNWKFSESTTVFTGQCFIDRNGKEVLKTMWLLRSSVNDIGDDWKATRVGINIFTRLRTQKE
From the text: as §1, §2

T1 sequence (P00722 2-1024 limits assumed): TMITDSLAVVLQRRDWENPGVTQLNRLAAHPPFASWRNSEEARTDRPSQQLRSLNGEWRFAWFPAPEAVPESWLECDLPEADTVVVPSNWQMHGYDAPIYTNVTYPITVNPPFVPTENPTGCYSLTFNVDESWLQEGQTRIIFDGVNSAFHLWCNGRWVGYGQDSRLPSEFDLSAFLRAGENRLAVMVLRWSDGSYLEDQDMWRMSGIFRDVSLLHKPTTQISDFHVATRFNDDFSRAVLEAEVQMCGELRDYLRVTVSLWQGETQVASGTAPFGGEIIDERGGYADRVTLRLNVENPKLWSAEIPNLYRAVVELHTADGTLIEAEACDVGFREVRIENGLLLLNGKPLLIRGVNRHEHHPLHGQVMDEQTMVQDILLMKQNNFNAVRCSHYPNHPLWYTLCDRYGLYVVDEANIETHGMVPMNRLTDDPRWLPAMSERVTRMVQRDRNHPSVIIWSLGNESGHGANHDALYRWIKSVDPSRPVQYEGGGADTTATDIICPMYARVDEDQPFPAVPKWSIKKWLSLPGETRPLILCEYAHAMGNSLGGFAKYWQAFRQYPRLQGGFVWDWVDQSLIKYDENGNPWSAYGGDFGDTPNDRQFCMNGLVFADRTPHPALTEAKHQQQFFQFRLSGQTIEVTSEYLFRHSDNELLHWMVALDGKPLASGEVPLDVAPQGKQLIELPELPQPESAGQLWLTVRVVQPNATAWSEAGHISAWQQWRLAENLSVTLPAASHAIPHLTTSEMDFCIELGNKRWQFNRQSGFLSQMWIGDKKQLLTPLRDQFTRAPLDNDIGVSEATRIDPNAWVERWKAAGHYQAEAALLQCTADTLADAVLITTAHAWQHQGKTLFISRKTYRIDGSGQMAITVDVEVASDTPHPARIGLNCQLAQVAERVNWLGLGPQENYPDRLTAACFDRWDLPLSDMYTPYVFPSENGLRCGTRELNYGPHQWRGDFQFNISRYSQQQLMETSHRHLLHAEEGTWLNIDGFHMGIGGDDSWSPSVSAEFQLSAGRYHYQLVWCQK
Chain of β-galactosidase from Escherichia coli (Escherichia coli) [β-galactosidase: P00722] (P00722 2-1024 limits assumed): as above

Row | Binder | EC50 (read off the curve) [2] | EC50 (read off the curve) (neutravidin) | also measured
1 | VTFAAANT | – | – | EC50 (read off the curve) [1]: 100 nM
2 | EKTLAYNQ (other, landscape phage immobilized in ELISA wells) | ~40 nM | – | –
3 | EKTLAYSQ (other, landscape phage immobilized in ELISA wells) | ~70 nM | – | –
4 | VPEYTGPS (other, landscape phage immobilized in ELISA wells; belongs to group m4) | – | ~3 micrograms/ml | –
5 | VPEYKGAS (other, landscape phage immobilized in ELISA wells; belongs to group m4) | – | ~3 micrograms/ml | –
6 | DTFAKSMQ (other, landscape phage immobilized in ELISA wells) | ~60 nM | – | –
